Test results taken from the nanobody polyreactivity screen of Harvey et al. (2022).

Assay: yeast display, Sf9 membrane polyspecificity reagent, FACS + sequencing; frameworks hold sequencing errors
In short: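 Polyreactivity labels are assigned by the sorting gate from which each nanobody was recovered. The gates were low and high (top ~1%), set on anti-HA fluorescence for expression and streptavidin fluorescence for reagent binding. Before sorting, galactose-induced (36–48 hours) yeast display cells were stained for 1 hour at 4 °C with 10% biotinylated, detergent-solubilized Sf9 membrane reagent.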

Sequence	polyreactivity (PSR sort gate)
QVQLVESGGGLVQAGGSLRLSCAASGRIFYGYDMGWYRQAPGKERELVAAITRGVSTYYADSVKGRFTISRDNAKNTVYLQMNSLKPEDTAVYYCAADLSPYVNYWWEYYYWGQGTQVTVSS	low polyreactivity
QVQLVESGGGIVQAGGSLRLSCSASGRNSGVNAMGSYRQAPGKERELVATISGSGGRTYYADSVKERFTISRDNAKNTVYLQMNSLKPEDTAVYYCNTLVQRGGYFSRGFDYWGQGTQVTVSS	low polyreactivity
QVQLVESGGGLVQAGGSLRLSCAASGRISVFNAMGWYRHAPGKERELVAAITSGGSTNYADSVKGRFTISRDNAKNTVYLQMNSLKPEDTAVYYCNADVYHSHEPHYDYWGQGTQVTVSS	low polyreactivity
QVQLVESGGGLVQAGGSLRLSCAASGRIFGGYTMGWYRQAPGKEREFVAAITSSGGSTYYADSVKGRLTISRDNAKNTVYLQMNSLKPEDTAVYYCAVADYYDDYDYWGQGTQVTVSS	low polyreactivity
QVQLVESGGGLVQAGGSLRLSCAASGSTFYLYAMGWYRQAPGKEREFVAAISWSGGRTYYAYSVKGRFTISRDNAKNTVYLQMNSLKPEDTAVYYCAARRRYTWQYTRYDMGYWGQGTQVTVSS	low polyreactivity
QVQLVESGGGLVQAGGSLSLSCAASGFIFNYYVMGWYRQAPGKERELVATISWRGGRTYYADSVKGRFTISRDNAKNTVYLQMNSLKPEDTAVYYCAKDSYYFTRYDYWGQGTQVTVSS	low polyreactivity
QVQLVESGGGLVQAGGSLRLSCAASGSIFGIYAMGWYRQAPGKERELVATITGRGGSTYYADSVKGRFTISRDNAKNTVYLQMNSLKPEDTAVYYCNAGGRSARYFWGGYWGQGTQVTVSS	high polyreactivity
QVQLVESVGGLVQAGGSLRLSCAASGRTFAYYTMGWYRQAPGKERELVARISGYGGSTYYADSVKGRFTISRDNAKNTVYLQMNSLKPEDTAVYYCNVVGAYYRYDYWGQGTQVTVSS	high polyreactivity
QVQLVESGGRLVQAGGSLRLSCDASGRTFGKYALGWYRQAPGKEREFVATITRSGDSTYYADSVKGRFTISRDNAKNTVYLQMNSLKPEDTAVYNCAKDTYGVLSYFQVSREYWGQGTQVTVSS	low polyreactivity
QVQLEESGGGLVQAGGSLRLSCAASGSIFDYYAMGWYRQAPGTERELVATITSGVSTYYADSVKGRFTISRDNAKNTVYLQMNSLKPEETAVYYCARDYAKSQDVYKYDYWGQGTQVTVSS	low polyreactivity
QVQLVESGGGLVQAGGSHRLSCAASGITFGSYVMGWYRQAPGKERELVAAISRSGGRTYYADSVKGRFTISRDNAKNTVYLQMNSLKPEDTAVYYCAARYDSGNYVYWGQGTQLTVSS	high polyreactivity
QVQLVESGGGLVQAGGSLRLSCAASGSIFDSYAMGWYRQAPGKERELVATINTSGGSTYYADSVKGRFTIHDNAKNTVYLQMNSLKPEDTAVYYCAVVVHYSTIGGGYRPRMYYWGQGTQVTVSS	low polyreactivity
QVQLVESCGGLVQAGGSLRLSCAASGRIFLYNAMGWYRQAPGKERELVAVISRNGGSTYYADSVKGRFTISRDNAKNTVYLQMNSLKPEDTAVYYCNRYDRLAGRTTYDYWGQGSQVTVSS	high polyreactivity
QVQLEESGGGLVQAGGSLRLSSPASGFIFRYYAMGWYRQAPGKERELVAAISGRGGSTYYADSVKGRFTISRDNAKNTVYLQMNSLKPEDTAVYYCAVDVPSQGGDYWGQGTQVTVSS	high polyreactivity
QLQPVESGGGLVQAGGSLRLSSAASGSTFVSYDRGWYRQAPGKERALVAVITSGGSTNYADSVKGRFTISRDNAKNTVYLQMNSLKPEETAVYYCAKRRYGRSGGSRYHYWGQGTQVTVSS	high polyreactivity
QDQLVESGGGLVQAGGSLRLSCAASGSTFFGNAMGWSRQAPGKERELVAAISRGGGSTYYADSVKGRLTISRDNAKNTVYLQMNCLKPEDTAVYYCNADDPWTGTAVSTPNDSWGQGTQVTVSS	low polyreactivity
QVQLVESGGGLVQAGGSLRLSCAASGSTFAAYVMGWYRQAPGKERELVAAISTSGGGTYYADSVKGRFTISRDTAKNTVYLQMNSLKPEDTAVYYCAADYGSGSVSYDYWGQGTQVTVSS	low polyreactivity
QVQLVESGGGLVQAGGSLRLSCPASASIFLSNMGWYRQAPGKERELVAAITIGGSTDYADSVKGRFTISRDNAKNTVYLQMNSLKPEDTAVYYCNADNPYSDGADSLGNYWGQGTQVTVSS	low polyreactivity
QVQLVESGGGLVQAGGSLRLSCAASGLMFTRYAMGWYRQAPGKERELVAAISITGGSTYYADSVKGRFTFSRDNAKNTVYLQMNSLKPEDTAVYYCAAQRQVTTGIYGYWGQGTQVTVSS	high polyreactivity
QVQRVESGGGLVQAGGRLRLSCAASGFTFFHYAMGRYRQAPGKERELVAAISWSGGTTYYADSVKGRFTISRDNAKNTVYLQMNCLKPEDTAVYYFAADGGLGWRWLPLGYRYGFDYWGQGTQVTVSS	low polyreactivity
QVQLVESRGGLVQAGGSLRLSCAASGFIFWRYAMGWYRQAPGKERELVASITYSGGRTYYADSVKGRFTISRDNAKNTVYLQMNILKPEDTAVYYCATARYRYHYYSWGQGTQVTVSS	high polyreactivity
QVQLVESGGGLVQAGGSLRLSCAASGSIFWVYTMGWYREAPGKERELVAASRSRGGSTYYADSVKGRFTISRDKAKNTVYLQMNSLKPEDTAVYYGNADYYYEVDSWGQGTQVTVSS	low polyreactivity

Sequence	polyreactivity (PSR sort gate)
QVQLVESGGGLVQAGGSLRLSCAASGITFRTYAMGWYRQAPGKERELVAAISSRGGSTYYADSVKGRFTISRDNAKNTVYLQMNSLKPEDTAVYYCNARDVRYYEYGYWGQGTQVTVSS	high polyreactivity
QVQLVESGGGLVQAGGSLRLICAASGFIFGHYAMGWYRQAPGNERELVAAISTGGDGTYYADSVKGRFTISRDNAKNTVYLQMNSLKPEDTAVYYCAVRHRASGILYYYWGQATQVTVSS	low polyreactivity
QVQLVESGGGLVQAGGSLRLSCAASGFIFAAYAMGWYRQAPGKERELVAAISGSGGRTYYADSVKGRFTISRDNAKNTVYLQMNSLKPEDTAVYYCATPPGYPPGSIKWSRFGYWGQGTQVTVSS	high polyreactivity
QVQLVESGGGLVQAGGSLRLSCAASGRIIKTNAMGWYRQAPGKERELVAAISSSGGRTYYADSVKGRFTISRDNAKNTVYLQMNSLKPEDTAVYYCAAPSLVSFGYWGQGTQVTVSS	high polyreactivity
QVQLVESGGGLVQAGGSLRLSCAASGFTFYTNAMGWYRPAPGKEREFVAAISFSGGTYYADSVKGRFTISRDNAKNTVYLQMNSLKPEDTAVYYCNARYPRYYRGVIQYDYWGQGTQVTVSS	low polyreactivity
QVQLVESGGGLVQAGGSLRLSCAASGRTFAWYTMGWSRQEPGKERELVAAISGSGGSTYYADSVKGRFTISRDNAKNTVYLQMNSLKPEDTAVYYCARRVDSYYGHTRYYYWGQGTQVTVSS	high polyreactivity
QVHLVESGGGLVQAGGSLRLSCAASGRTFSWNALGWYRQAPGKQRELVAVISRGDSTNYADSVKGRFTISRDNEKNTVYLQMNSLKPVDNAVYYCAADGYPPGYGYWGQGTQVTVSS	low polyreactivity
QVQLVESGGGLVQAGGSLRLSCAASGSIFYQYAMGWYRQAPGKERELVAAISQNGGRTYYADSVKGRFTISRDNAKNKVYLQMNRLKPEDTAVYYFAARHAPTRYGYWGQGTEVTVSS	high polyreactivity
QVQLVESGGGLVQAGGSLRLSCAASGSTFFSYAMGWYRQAPGKERELVAAISNTGGTHYADSVKGRFTISRDNAKNTVYLQMNSLKPEDTAVFYCAADGWYYIGPFSVYSSFTSDYWGQGTQLTVSS	low polyreactivity
QVQLQESVGGLVQAGGSLRLSCPASGSIFKVVDMVLYRQAPAKEREFVATIGVGGNTYYADSVKGRFTISRDNAKNTVYLQMNSLKPEDTAVYFYAVVLGTSYRYTYWGQGTQVTVSS	low polyreactivity
QVQLVESGGGLVQAGGSLRLSCSASGRTSVLYAMGWYRQAPGKEREFVAAITWNSGSTYYADSVKGRFTISRDHAKNTVYLQMISLKPEDTAVYYCNADYYFSSYRSTYDYWGQGTQVTVSS	low polyreactivity
QVQLVESGGGLVQAGGSLRLSCAASGSTSVDYTMGLYRQAPGKERELVAAIDYNGDSTYYADSVKGRFTISRDNAKNTVYLQMNSLKPEDTAVYYCAADYLSFVVVKLYGYWGQGTQVTVSS	low polyreactivity
QVQLVESGGGLVQAGGSLRLSCAASGFTFWIYAMGWYRQAPGKERELVAVISRGGSTYYADSVKGRFTISRDNAKNTVYLQMNSMKPEDTAVYYCNAVGVRGYDYWGQGTQVTVSS	high polyreactivity
QVQLVESGAGLLQAGGSLRLSCAASGITLRRNTMGWYRQAPGKERELVAAITRSGGSTYYADSVKGRVTISRDNAKNTVYLQINSLKPEVTAVYYCAEGPSYGGPSHVYWRQGTQVTVSS	high polyreactivity
QVQLVESGGGLVQEGGSLRLTCAASGRIFVYNAMGWYRQAPRKDRELVAAISWRGDGTYYADSVKGLFTISRDNAKITVYLQMNSLKPEDTAVYYCAADYVYYYHEYDYWGQGTQVTVSS	low polyreactivity
QVQLVESGGGLVQAGGSLRLSCAAFGFTFNSYAMGWNRQAPGKERELVAGITSSGGGTYYADSVKGRFTISRDNAKNTVYLQMNSLKPEDTAVYYCNTYSYLFSRYGFWGQGTQVTVSS	high polyreactivity
QDQLVESGGGLVQAGGSLRLSCAASGLTFRKNAMGWSRQAPGKERELVAAISTGGRTYYADSVKGRFTISRDNAKNTVYLQMNSLKPEDTAVYYCNTVYVKSGLDYWGQGTQVTVSS	high polyreactivity
QVQLVESGGGLVQAGGSLRLSCAASGIIFGKNAMGWYRQAPGKERELVAAISSSGGSTYYADSVKGRFTISRDNAKNTVYLQMNSLKPEDTAVYYCATERGSRRSGSRMDYWGQGTQVTVSS	high polyreactivity
QVQLVESGGGLVQAGGSLRLSCAASGSIFSYYAMGWYRQAPGKERELVAAITRSGSKNYADSVKGRFTISRDNAKNTVYLQMNSLKPEDTAVYYCAAETDESDWYYYWGQGTQVTVSS	high polyreactivity
QVQLVESGGGLVQAGGSLRLICAASGSILYKYAMGWYRQAPGKERELVAAISSRGGNTYYADSVKGRFTISRDNSKNTVYLQMNSLKPEDTAVYYCAADLWAGKYGEYDYWGQGTQVTVSS	high polyreactivity
QVQLVESGGGLVQAGGSLRLSCAASGIIFRYYARVWYRQAPGKEREFVAAINYSGGSTYYADSVKGRFTISRDTAKYSVYLQMNSLKPEDTAVYYCAARSYTYTAPIYGYWGQGTQVTVSS	high polyreactivity
